In US20180155451A1 (published 2018):

T1: FcγRIIb extracellular domain with C-terminal His tag (human, UniProt P31994 43-217)
T1 construct: extracellular domain; Soluble receptor expressed in FreeStyle293 cells and used as analyte in Biacore; also called FcgRIIb; 2b; not shown: His tag at the C terminus
T1 sequence (looked up): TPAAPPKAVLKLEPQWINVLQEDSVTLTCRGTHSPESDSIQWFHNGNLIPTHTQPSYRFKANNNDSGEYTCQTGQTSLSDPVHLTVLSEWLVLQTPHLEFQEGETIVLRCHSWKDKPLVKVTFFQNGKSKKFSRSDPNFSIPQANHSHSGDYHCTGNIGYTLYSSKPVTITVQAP

B1: heterodimerized antibody GpH7-A5/GpH7-B3 variant Y296_08L/GpL16-k0 (antibody, human IgG1, kappa)
heavy 1: not shown
heavy 2: not shown
light: DIVMTQSPLSLPVTPGEPASISCQASESLVHSNRNTYLHWYLQKPGQSPQLLIYKVSNRFSGVPDRFSGSGSGTDFTLKISRVEAEDVGVYYCSQNTHVPPTFGQGTKVEIERTVAAPSVFIFPPSDEQLKSGTASVVCLLNNFYPREAKVQWKVDNALQSGNSQESVTEQDSKDSTYSLSSTLTLSKADYEKHKVYACEVTHQGLSSPVTKSFNRGEC
notes: Substitution in only one H chain (GpH7-B3 side); also called He Ab
B2: heterodimerized antibody GpH7-A5/GpH7-B3 variant Y296_12R/GpL16-k0 (antibody, human IgG1, kappa)
heavy 1: not shown
heavy 2: not shown
light: B1 light
notes: as for B1
B3: heterodimerized antibody GpH7-A5/GpH7-B3 variant Y296_07I/GpL16-k0 (antibody, human IgG1, kappa)
heavy 1: not shown
heavy 2: not shown
light: B1 light
notes: as for B1
B4: GpH7-B3 variant P271_14T/GpL16-k0 (antibody, human IgG1, kappa)
heavy: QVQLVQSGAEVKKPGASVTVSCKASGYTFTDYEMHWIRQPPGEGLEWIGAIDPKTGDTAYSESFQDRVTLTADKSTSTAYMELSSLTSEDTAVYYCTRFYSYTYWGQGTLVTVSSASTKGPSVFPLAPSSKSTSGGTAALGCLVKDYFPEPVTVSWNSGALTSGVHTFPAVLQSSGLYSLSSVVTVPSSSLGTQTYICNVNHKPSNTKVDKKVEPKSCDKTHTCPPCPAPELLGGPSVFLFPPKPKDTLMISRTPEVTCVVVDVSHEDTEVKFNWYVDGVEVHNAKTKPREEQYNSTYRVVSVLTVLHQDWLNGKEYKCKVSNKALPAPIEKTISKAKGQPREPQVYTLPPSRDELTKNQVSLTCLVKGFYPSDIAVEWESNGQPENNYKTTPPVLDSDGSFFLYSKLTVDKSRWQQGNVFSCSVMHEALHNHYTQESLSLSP
light: B1 light
notes: mutation in both H chains; also called Ho Ab P271_14T; P271T
B5: GpH7-B3 variant Q295_08L/GpL16-k0 (antibody, human IgG1, kappa)
heavy: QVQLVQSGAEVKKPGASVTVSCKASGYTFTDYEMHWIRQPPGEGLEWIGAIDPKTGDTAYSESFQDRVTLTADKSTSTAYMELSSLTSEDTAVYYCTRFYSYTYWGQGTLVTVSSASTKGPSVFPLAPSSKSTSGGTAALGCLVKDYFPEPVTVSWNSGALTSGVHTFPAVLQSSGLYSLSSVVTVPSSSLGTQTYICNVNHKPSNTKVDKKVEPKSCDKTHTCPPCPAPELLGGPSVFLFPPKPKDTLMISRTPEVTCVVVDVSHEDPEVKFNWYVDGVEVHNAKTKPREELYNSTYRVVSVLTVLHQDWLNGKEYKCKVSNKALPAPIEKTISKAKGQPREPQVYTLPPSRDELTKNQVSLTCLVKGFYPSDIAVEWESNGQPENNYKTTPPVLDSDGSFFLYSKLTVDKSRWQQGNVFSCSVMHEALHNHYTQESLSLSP
light: B1 light
notes: mutation in both H chains; also called Ho Ab Q295_08L; Q295L
B6: GpH7-B3 variant Q295_09D/GpL16-k0 (antibody, human IgG1, kappa)
heavy: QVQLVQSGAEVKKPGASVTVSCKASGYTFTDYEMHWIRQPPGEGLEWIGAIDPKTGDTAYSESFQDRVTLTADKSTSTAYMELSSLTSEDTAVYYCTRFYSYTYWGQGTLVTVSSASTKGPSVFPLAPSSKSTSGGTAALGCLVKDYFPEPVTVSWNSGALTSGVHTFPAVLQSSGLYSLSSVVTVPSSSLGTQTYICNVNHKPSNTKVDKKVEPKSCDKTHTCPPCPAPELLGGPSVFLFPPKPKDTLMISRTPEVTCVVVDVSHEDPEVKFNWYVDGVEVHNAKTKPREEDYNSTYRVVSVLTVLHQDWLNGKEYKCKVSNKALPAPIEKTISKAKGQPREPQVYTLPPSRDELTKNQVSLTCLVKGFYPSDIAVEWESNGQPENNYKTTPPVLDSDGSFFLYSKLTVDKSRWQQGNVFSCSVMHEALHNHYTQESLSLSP
light: B1 light
notes: mutation in both H chains; also called Ho Ab Q295_09D; Q295D
B7: GpH7-B3 variant Q295_03V/GpL16-k0 (antibody, human IgG1, kappa)
heavy: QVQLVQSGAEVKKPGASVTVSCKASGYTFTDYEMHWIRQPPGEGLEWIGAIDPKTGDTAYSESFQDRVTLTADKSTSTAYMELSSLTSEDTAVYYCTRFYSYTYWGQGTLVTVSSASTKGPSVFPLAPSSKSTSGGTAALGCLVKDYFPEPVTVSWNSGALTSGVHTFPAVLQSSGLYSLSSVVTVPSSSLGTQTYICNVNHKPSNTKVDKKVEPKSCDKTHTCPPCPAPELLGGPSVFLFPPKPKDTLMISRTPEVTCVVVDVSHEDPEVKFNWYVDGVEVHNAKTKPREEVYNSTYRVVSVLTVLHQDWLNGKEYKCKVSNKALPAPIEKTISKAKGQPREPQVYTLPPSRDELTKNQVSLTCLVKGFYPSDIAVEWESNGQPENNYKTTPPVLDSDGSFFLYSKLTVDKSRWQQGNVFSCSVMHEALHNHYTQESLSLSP
light: B1 light
notes: mutation in both H chains; also called Ho Ab Q295_03V; Q295V
B8: GpH7-B3 variant Q295_11K/GpL16-k0 (antibody, human IgG1, kappa)
heavy: not shown
light: B1 light
notes: mutation in both H chains; also called Ho Ab Q295_11K; Q295K
B9: GpH7-B3 variant Q295_04F/GpL16-k0 (antibody, human IgG1, kappa)
heavy: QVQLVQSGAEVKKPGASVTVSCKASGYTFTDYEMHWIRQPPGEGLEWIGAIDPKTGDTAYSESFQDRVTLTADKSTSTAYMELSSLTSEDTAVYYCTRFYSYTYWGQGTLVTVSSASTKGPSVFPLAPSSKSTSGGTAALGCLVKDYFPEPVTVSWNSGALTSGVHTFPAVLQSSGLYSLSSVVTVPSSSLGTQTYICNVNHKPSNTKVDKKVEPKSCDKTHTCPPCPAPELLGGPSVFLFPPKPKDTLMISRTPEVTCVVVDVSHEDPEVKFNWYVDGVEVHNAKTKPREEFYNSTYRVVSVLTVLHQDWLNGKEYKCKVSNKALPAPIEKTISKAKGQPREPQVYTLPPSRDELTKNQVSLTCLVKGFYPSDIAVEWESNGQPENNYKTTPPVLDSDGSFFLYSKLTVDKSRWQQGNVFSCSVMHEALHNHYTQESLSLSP
light: B1 light
notes: mutation in both H chains; also called Ho Ab Q295_04F; Q295F
B10: GpH7-B3 variant Q295_13S/GpL16-k0 (antibody, human IgG1, kappa)
heavy: not shown
light: B1 light
notes: mutation in both H chains; also called Ho Ab Q295_13S; Q295S
B11: GpH7-B3 variant Q295_18N/GpL16-k0 (antibody, human IgG1, kappa)
heavy: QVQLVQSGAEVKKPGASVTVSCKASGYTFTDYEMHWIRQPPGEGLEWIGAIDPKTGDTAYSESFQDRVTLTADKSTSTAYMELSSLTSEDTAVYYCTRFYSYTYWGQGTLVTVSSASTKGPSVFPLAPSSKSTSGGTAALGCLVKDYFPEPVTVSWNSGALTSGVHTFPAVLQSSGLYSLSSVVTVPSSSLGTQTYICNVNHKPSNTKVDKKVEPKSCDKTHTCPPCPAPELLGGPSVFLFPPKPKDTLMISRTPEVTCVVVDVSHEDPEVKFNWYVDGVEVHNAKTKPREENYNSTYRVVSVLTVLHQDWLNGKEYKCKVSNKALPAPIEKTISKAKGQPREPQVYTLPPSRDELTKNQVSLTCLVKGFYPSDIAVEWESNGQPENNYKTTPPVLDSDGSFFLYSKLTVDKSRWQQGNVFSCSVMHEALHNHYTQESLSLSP
light: B1 light
notes: mutation in both H chains; also called Ho Ab Q295_18N; Q295N
B12: GpH7-B3 variant Q295_16H/GpL16-k0 (antibody, human IgG1, kappa)
heavy: not shown
light: B1 light
notes: mutation in both H chains; also called Ho Ab Q295_16H; Q295H
B13: GpH7-B3 variant P329_01G/GpL16-k0 (antibody, human IgG1, kappa)
heavy: not shown
light: B1 light
notes: mutation in both H chains; also called Ho Ab P329_01G; P329G
B14: GpH7-B3 variant S239_01G/GpL16-k0 (antibody, human IgG1, kappa)
heavy: not shown
light: B1 light
notes: mutation in both H chains; also called Ho Ab S239_01G; S239G
B15: GpH7-B3 variant P271_15Y/GpL16-k0 (antibody, human IgG1, kappa)
heavy: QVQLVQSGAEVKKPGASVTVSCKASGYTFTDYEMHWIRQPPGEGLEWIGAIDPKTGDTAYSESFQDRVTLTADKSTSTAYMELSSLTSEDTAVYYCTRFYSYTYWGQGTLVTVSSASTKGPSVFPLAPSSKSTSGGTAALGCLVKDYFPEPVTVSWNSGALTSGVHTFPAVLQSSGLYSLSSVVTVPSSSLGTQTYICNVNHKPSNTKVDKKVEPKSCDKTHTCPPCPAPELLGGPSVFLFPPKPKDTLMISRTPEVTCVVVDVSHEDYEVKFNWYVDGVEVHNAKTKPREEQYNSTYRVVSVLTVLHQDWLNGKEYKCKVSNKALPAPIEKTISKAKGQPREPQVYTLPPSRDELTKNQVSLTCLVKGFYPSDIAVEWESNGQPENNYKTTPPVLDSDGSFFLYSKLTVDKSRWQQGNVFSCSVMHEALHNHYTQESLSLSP
light: B1 light
notes: mutation in both H chains; also called Ho Ab P271_15Y; P271Y
B16: GpH7-B3 variant Q295_05P/GpL16-k0 (antibody, human IgG1, kappa)
heavy: not shown
light: B1 light
notes: mutation in both H chains; also called Ho Ab Q295_05P; Q295P
B17: GpH7-B3 variant P271_16H/GpL16-k0 (antibody, human IgG1, kappa)
heavy: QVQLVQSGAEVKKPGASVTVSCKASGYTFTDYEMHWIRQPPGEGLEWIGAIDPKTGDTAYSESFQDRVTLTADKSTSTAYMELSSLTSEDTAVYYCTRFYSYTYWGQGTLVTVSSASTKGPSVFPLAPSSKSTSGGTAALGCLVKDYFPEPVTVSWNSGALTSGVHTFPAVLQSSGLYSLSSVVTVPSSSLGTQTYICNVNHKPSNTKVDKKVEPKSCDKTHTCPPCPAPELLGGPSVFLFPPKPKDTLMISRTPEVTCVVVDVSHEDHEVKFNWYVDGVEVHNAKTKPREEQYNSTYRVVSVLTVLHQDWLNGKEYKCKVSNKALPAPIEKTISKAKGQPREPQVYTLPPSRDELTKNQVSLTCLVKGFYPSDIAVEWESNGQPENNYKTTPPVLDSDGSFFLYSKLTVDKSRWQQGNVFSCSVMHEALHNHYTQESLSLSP
light: B1 light
notes: mutation in both H chains; also called Ho Ab P271_16H; P271H
B18: GpH7-B3 variant Q295_07I/GpL16-k0 (antibody, human IgG1, kappa)
heavy: not shown
light: B1 light
notes: mutation in both H chains; also called Ho Ab Q295_07I; Q295I
B19: GpH7-B3 variant Q295_14T/GpL16-k0 (antibody, human IgG1, kappa)
heavy: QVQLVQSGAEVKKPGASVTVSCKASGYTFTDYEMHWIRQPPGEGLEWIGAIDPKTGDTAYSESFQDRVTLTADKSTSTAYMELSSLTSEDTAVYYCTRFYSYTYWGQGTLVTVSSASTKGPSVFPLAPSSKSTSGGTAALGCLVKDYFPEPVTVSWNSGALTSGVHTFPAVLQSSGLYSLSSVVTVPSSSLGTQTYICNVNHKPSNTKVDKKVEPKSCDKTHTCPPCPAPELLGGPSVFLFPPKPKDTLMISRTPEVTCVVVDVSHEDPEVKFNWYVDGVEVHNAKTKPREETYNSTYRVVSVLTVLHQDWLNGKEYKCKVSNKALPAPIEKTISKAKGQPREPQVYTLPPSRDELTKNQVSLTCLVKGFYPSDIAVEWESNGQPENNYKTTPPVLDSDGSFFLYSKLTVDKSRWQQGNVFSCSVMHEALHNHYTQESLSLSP
light: B1 light
notes: mutation in both H chains; also called Ho Ab Q295_14T; Q295T
B20: GpH7-B3 variant Q295_15Y/GpL16-k0 (antibody, human IgG1, kappa)
heavy: not shown
light: B1 light
notes: mutation in both H chains; also called Ho Ab Q295_15Y; Q295Y
B21: GpH7-B3 variant P329_02A/GpL16-k0 (antibody, human IgG1, kappa)
heavy: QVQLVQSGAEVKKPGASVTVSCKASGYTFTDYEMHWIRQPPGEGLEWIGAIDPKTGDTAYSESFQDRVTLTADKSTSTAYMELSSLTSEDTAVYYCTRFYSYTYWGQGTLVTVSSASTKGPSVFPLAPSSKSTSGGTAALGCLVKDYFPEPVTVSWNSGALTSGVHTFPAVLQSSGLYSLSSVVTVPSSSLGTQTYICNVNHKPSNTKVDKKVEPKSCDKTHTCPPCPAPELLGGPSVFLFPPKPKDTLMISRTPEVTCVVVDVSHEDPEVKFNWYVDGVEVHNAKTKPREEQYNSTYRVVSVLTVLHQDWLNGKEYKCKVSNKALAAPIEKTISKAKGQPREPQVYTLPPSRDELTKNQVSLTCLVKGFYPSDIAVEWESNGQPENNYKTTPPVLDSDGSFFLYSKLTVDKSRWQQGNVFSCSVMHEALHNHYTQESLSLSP
light: B1 light
notes: mutation in both H chains; also called Ho Ab P329_02A; P329A

The binders below were run against T2, FcγRIa extracellular domain with C-terminal His tag (human, UniProt P12314 16-292) (assay: SPR Biacore, relative binding amount).
T2 construct: extracellular domain; Soluble receptor expressed in FreeStyle293 cells and used as analyte in Biacore; also called FcgRI; 1a; not shown: His tag at the C terminus
T2 sequence (P12314 16-292): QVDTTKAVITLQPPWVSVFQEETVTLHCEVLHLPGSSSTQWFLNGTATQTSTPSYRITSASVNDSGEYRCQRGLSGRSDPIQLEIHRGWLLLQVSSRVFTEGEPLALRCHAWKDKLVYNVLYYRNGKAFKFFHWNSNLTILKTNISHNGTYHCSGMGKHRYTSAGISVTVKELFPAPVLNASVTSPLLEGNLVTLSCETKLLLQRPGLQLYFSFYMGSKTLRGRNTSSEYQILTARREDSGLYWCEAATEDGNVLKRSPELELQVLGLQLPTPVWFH

Row | He/Con_1a | Binder
1 | 104 % of GpH7-A5/GpH7-B3/GpL16-k0 (=100) | B1
2 | 106 % of GpH7-A5/GpH7-B3/GpL16-k0 (=100) | B2
3 | 104 % of GpH7-A5/GpH7-B3/GpL16-k0 (=100) | B3

The binders below were run against T1, FcγRIIb extracellular domain with … (assay: SPR Biacore, relative binding amount).

Row | He/Con_2b | Binder
4 | 82.3 % of GpH7-A5/GpH7-B3/GpL16-k0 (=100) | B1
5 | 79.5 % of GpH7-A5/GpH7-B3/GpL16-k0 (=100) | B2
6 | 84.3 % of GpH7-A5/GpH7-B3/GpL16-k0 (=100) | B3

Each binder was assayed against T3, FcγRIa extracellular domain with C-terminal His tag (human, UniProt P12314 16-292) (assay: SPR Biacore, relative FcγRIa binding vs GpH7-B3/GpL16-k0).
T3 construct: extracellular domain; also called FcgRI; CD64; not shown: His tag at the C terminus
T3 sequence (P12314 16-292): as above

Row | Ho/Con_1a | Binder
7 | 99.5 % of HoCon Ab (=100) | B4
8 | 103 % of HoCon Ab (=100) | B5
9 | 96.8 % of HoCon Ab (=100) | B6
10 | 102 % of HoCon Ab (=100) | B7
11 | 99.9 % of HoCon Ab (=100) | B8
12 | 100 % of HoCon Ab (=100) | B9
13 | 101 % of HoCon Ab (=100) | B10
14 | 101 % of HoCon Ab (=100) | B11
15 | 99.1 % of HoCon Ab (=100) | B12
16 | 89.5 % of HoCon Ab (=100) | B13
17 | 101 % of HoCon Ab (=100) | B14
18 | 99.4 % of HoCon Ab (=100) | B15
19 | 101 % of HoCon Ab (=100) | B16
20 | 99.4 % of HoCon Ab (=100) | B17
21 | 101 % of HoCon Ab (=100) | B18
22 | 102 % of HoCon Ab (=100) | B19
23 | 97 % of HoCon Ab (=100) | B20
24 | 98.2 % of HoCon Ab (=100) | B21

What follows are binders tested against T2, FcγRIa extracellular domain with … (assay: SPR Biacore; relative binding to FcγRIa divided by that to FcγRIIb).

Row | Ia/IIb He_1a/2b | Binder
25 | 1.26 ratio of He/Con_1a to He/Con_2b | B1
26 | 1.34 ratio of He/Con_1a to He/Con_2b | B2
27 | 1.24 ratio of He/Con_1a to He/Con_2b | B3
